Assay results published in the supplement of paper PMC7125110.
± gives the standard error. Variants at the floor of the assay were thinned out.

B1: glmS ribozyme (parent)
chain: AUAAAAGCGCCAGAACUACAGAAAUGUAGUUGACGAGGAGGAGGUUUAUCGAAUUUUCGGCGGAUGCCUCCAAA

Variants of: B1
Assay: self-cleavage kobs at 10000 uM GlcN6P; higher = faster cleavage; RNA array
Conditions: with glucosamine-6-phosphate
Summary of the method: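 The measurements used barcoded ribozyme variants on sequenced MiSeq chips, transcribed in situ by E. coli RNA polymerase and tracked at 37 °C with a hybridised Cy3 probe. Glucosamine-6-phosphate, 40 μM to 10 mM in HEPES/KCl/Mg(OAc)2 buffer, was flowed in while tiles were imaged over ~14 h. Baseline-normalised signals, also normalised to non-cleaving reference variants, gave per-tile medians that were fit to one- or two-exponential decays for kobs. kcat and KM resulted from weighted Michaelis–Menten fits across concentrations.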

| Variant | self-cleavage kobs at 10000 uM GlcN6P |
| --- | --- |
| AUAAAAGCGCCAGAACUACAGAAAUGUAGUUGACGAGGAGGAGGUUUAUCGCAUUUUCGGCGGAUGCUUUCAAA | 3.87e-05 ± 1.7e-05 s⁻¹ |
| AUAAAAGCGCCAGAACUACAGAAAUGUAGUUGACGAGGAGGAGGUUUAUGGAACUUUCGGCGGAUGCCUCUAAA | 4.14e-05 ± 1.5e-05 s⁻¹ |
| AUAAAAGCGCCAGAACUACAGAAAUGUAGUUGACGAGGAGGAGGUUUAUCGAAUUUUUAGCGGAUGCCUCCAAA | < 1e-05 s⁻¹ |
| AUAAAAGCGCCAGAACUACAGAAAUGUAGUUGACGAGGAGGAGGUCUAACGAAUUUUCGGCGGAUGCCUCCAAA | < 1e-05 s⁻¹ |
| AUAAAAGCGCCAGAACUACAGAAAUGUAGUUGACGAGGAGGAGGUUUAUCGUAUUUUCGGCGGAAGCCUCCAAA | 2.95e-05 ± 9.7e-06 s⁻¹ |
| AUAAAAGCGCCAGAACUACAGAAAUGUAGUUGACGAGGAGGAGGUUUAUCGAAUUUACGAAGGAUGCCUCCAAA | < 1e-05 s⁻¹ |
| AUAAAAGCGCCAGAACUACAGAAAUGUAGUUGACGAGGAGGAGGUUUAUCGAAGUUUCGGCGCACGCGUCGAAA | 3.78e-05 ± 1.6e-05 s⁻¹ |
| AUAAAAGCGCCAGAACUACAGAAAUGUAGUUGACGAGGAGGAGGUUUAUUGAAUUUUCGGUGGAUGUCUCCAAA | < 1e-05 s⁻¹ |
| AUAAAAGCGCCAGAACUACAGAAAUGUAGUUGACGAGGAGGAGGUUAAUCGAAUUUUCGGCGGAGUCCUCCAAA | 0.00262 ± 0.00053 s⁻¹ |
| AUAAAAGCGCCAGAACUACAGAAAUGUAGUUGACGAGGAGGAGGUGUAUCGAAUUUUCGGGGGAUGCCUCGAAA | 4.27e-05 ± 1.8e-05 s⁻¹ |
| AUAAAAGCGCCAGAACUACAGAAAUGUAGUUGACGAGGAGGAGGUUUAUCGAAUGUUCGGAGGAUGCCUCGAAA | < 1e-05 s⁻¹ |
| AUAAAAGCGCCAGAACUACAGAAAUGUAGUUGACGAGGAGGAGGUGUAUCGAAUUUUCGGCGGAUGCUUCUAAA | 8.22e-05 ± 1.3e-05 s⁻¹ |
| AUAAAAGCGCCAGAACUACAGAAAUGUAGUUGACGAGGAGGAGGUUUAUCCAAGUUUCGGCGGAUGCCUACAAA | < 1e-05 s⁻¹ |
| AUAAAAGCGCCAGAACUACAGAAAUGUAGUUGACGAGGAGGAGGUUAAUCGAAUUUUCGGCGGAUGUCUCUAAA | 0.000453 ± 0.00017 s⁻¹ |
| AUAAAAGCGCCAGAACUACAGAAAUGUAGUUGACGAGGAGGAGGUUUAUCGAAUUUUAGCCGGAUGCCUCCAAA | < 1e-05 s⁻¹ |
| AUAAAAGCGCCAGAACUACAGAAAUGUAGUUGACGAGGAGGAGGUUUAUCGAAGUUUCUGCGGAUGCCUCUAAA | 4.41e-05 ± 1.6e-05 s⁻¹ |
| AUAAAAGCGCCAGAACUACAGAAAUGUAGUUGACGAGGAGGAGGUUUAUGGAAUUUUCGGCGUAAGCCGCCAAA | 0.000121 ± 2.7e-05 s⁻¹ |
| AUAAAAGCGCCAGAACUACAGAAAUGUAGUUGACGAGGAGGAGGUUUAUCGAAUUCUCGGCGGCAGCCUCCAAA | < 1e-05 s⁻¹ |

| Variant | self-cleavage kobs at 10000 uM GlcN6P |
| --- | --- |
| AUAAAAGCGCCAGAACUACAGAAAUGUAGUUGACGAGGAGGAGGUUUUUCGAAUUUUCUGCGGAUGCAUCCAAA | < 1e-05 s⁻¹ |
| AUAAAAGCGCCAGAACUACAGAAAUGUAGUUGACGAGGAGGAGGUUUAGCGAAUUUUCGAGUGAUGCCUCCAAA | < 1e-05 s⁻¹ |
| AUAAAAGCGCCAGAACUACAGAAAUGUAGUUGACGAGGAGGAGGUUUCUCGAAUUUUAGGUGGAUGCCUCCAAA | < 1e-05 s⁻¹ |
| AUAAAAGCGCCAGAACUACAGAAAUGUAGUUGACGAGGAGGAGGUUUAUUGAAUUUUCGUAGGAUGCCUCCAAA | < 1e-05 s⁻¹ |
| AUAAAAGCGCCAGAACUACAGAAAUGUAGUUGACGAGGAGGAGGUUUAUCGAAAUUUCGGCGGAUACAUCCAAA | 9.65e-05 ± 1.7e-05 s⁻¹ |
| AUAAAAGCGCCAGAACUACAGAAAUGUAGUUGACGAGGAGGAGGUUUAUCGAAUUUUCCGCGGAUACCUCCAAA | < 1e-05 s⁻¹ |
| AUAAAAGCGCCAGAACUACAGAAAUGUAGUUGACGAGGAGGAGGUUUAUCGAACUUUCGGCGGAUCCCUCCAAA | 0.00113 ± 0.00015 s⁻¹ |
| AUAAAAGCGCCAGAACUACAGAAAUGUAGUUGACGAGGAGGAGGUGUAUGGAAUUUUCGGCGGAUGGCUCCAAA | < 1e-05 s⁻¹ |
| AUAAAAGCGCCAGAACUACAGAAAUGUAGUUGACGAGGAGGAGGUUCAUCGAUUUUUCGGCGGAUGCGUCCAAA | 3.22e-05 ± 1.4e-05 s⁻¹ |
| AUAAAAGCGCCAGAACUACAGAAAUGUAGUUGACGAGGAGGAGGUUGAUCGAAGUUUCGGCUGAUGCCUCCAAA | < 1e-05 s⁻¹ |
| AUAAAAGCGCCAGAACUACAGAAAUGUAGUUGACGAGGAGGAGGUUUAUCGAAUUUUUGGUGGAUGCCUCUAAA | < 1e-05 s⁻¹ |
| AUAAAAGCGCCAGAACUACAGAAAUGUAGUUGACGAGGAGGAGGUUUAUCGAAUUUACGGCGGGUGCCUCCAAA | 0.000214 ± 4.6e-05 s⁻¹ |
| AUAAAAGCGCCAGAACUACAGAAAUGUAGUUGACGAGGAGGAGGUUAAUCGAAGAUUCGGCGGAUGCCUACAAA | 0.000105 ± 3e-05 s⁻¹ |
| AUAAAAGCGCCAGAACUACAGAAAUGUAGUUGACGAGGAGGAGGUUUAUCGUCUUUUCGGCCGAUGCCUCCAAA | < 1e-05 s⁻¹ |
| AUAAAAGCGCCAGAACUACAGAAAUGUAGUUGACGAGGAGGAGGUUUAUCGAAUUUUCCGCGGUUGCCUCGAAA | < 1e-05 s⁻¹ |
| AUAAAAGCGCCAGAACUACAGAAAUGUAGUUGACGAGGAGGAGGGUUAUCGAAUUUUCUGCGGAUGCCUCCAAA | 4.05e-05 ± 1.2e-05 s⁻¹ |
| AUAAAAGCGCCAGAACUACAGAAAUGUAGUUGACGAGGAGGAGGUUUAUCGAAUUUUGGGCUGAUGCCUCCAAA | < 1e-05 s⁻¹ |
